Measured values reported in patent US20250339569A1 (3B PHARMACEUTICALS, published 2025).
Starred links: 1 amine or outer side, 2 acyl side, 3 side chain; linkers in the order of their positions; H or OH if unused. Positions of bridges follow the written chain, without caps; N, C: chain ends. Non-standard residues stand in square brackets, D forms with d. Primed or numbered codes have the meaning given here. ξ: configuration not given here. *: point of attachment. Eem = S-benzyl-cysteine-sulfone, O=C([C@H](CS(=O)(=O)Cc1ccccc1)N[*:1])[*:2]; APAc″ = 2-(4-(amino)piperidin-1-yl)acetic acid, NC1CCN(CC(=O)*)CC1; DOTA = O=C(O)CN1CCN(CC(=O)O)CCN(CC(=O)*)CCN(CC(=O)O)CC1; Phe(3,4-Cl2) = N[C@@H](Cc1ccc(Cl)c(Cl)c1)C(=O)O; Phe(3-CF3) = N[C@@H](Cc1cccc(C(F)(F)F)c1)C(=O)O; Phe(4-CF3) = N[C@@H](Cc1ccc(C(F)(F)F)cc1)C(=O)O; ξTrp(7-Me) = Cc1cccc2c(CC(N)C(=O)O)c[nH]c12; Bip = N[C@@H](Cc1ccc(-c2ccccc2)cc1)C(=O)O; ξTrp(1-Me) = Cn1cc(CC(N)C(=O)O)c2ccccc21; Dip = N[C@H](C(=O)O)C(c1ccccc1)c1ccccc1; Phe(4-I) = N[C@@H](Cc1ccc(I)cc1)C(=O)O; dmo = (R)-dimethylornithine (D form); mXylylene = c1cc(C[*:1])cc(C[*:2])c1; Orn(Me2) = CN(C)CCC[C@H](N)C(=O)O; tBuAla = CC(C)(C)C[C@H](N)C(=O)O; Cha = N[C@@H](CC1CCCCC1)C(=O)O; NMeD = CN[C@@H](CC(=O)O)C(=O)O; Pen = CC(C)(S)[C@H](N)C(=O)O; NHMe2Nph = not defined here; hSer = N[C@@H](CCO)C(=O)O; AGLU′ = not defined here; Orn = NCCC[C@H](N)C(=O)O; APAc = not defined here; Dap = NC[C@H](N)C(=O)O

Biological target: human carbonic anhydrase 9 (CAIX) (human, UniProt Q16790 38-459)
Test: FACS competition on HT-29 cells, competitor tracer 3BP-2776; category A = pIC50 >8.0
Description: CAIX-expressing human HT-29 colorectal cancer cells (DSMZ, RRID: CVCL_0320) were cultured in McCoys's 5A modified medium (Biochrom, #F1015) including 10% fetal calf serum (FCS), 2 mM L-glutamine, 100 U/ml penicillin and 100 μg/mL streptomycin. Cells were detached with Accutase (Biolegend, #423201) and washed in FACS buffer (PBS including 1% FCS). Cells were diluted in FACS buffer to a final concentration of 500.000 cells per ml. 200 μL of the cell suspension were transferred to a u-shaped non-binding 96-well plate (Greiner) and cells were washed in ice-cold FACS buffer.
When biotinylated compounds were used an additional incubation step with 1 μg/mL APC-Streptavidin (Miltenyi; #130-106-791) in 50 μL FACS buffer for 30 minutes on ice was performed.
Cells were washed twice with ice-cold FACS buffer and analyzed in an Attune NxT flow cytometer (Thermo Fisher). Median fluorescence intensities (MFI) of the APC/Cy5-channel were calculated by Attune NxT software.

Row | Binder | pIC50 [pic50]
1 | {DOTA-APAc}-VYCE[dP]DWL[Orn(Me2)]WSC-NH2 (linker 3-12 via mXylylene; reading uncertain) [3BP-4099] | > 8
2 | {DOTA}-YCE[dP]DWLTWSC-NH2 (linker 2-11 via mXylylene; also: ['indium complexed by DOTA']) [3BP-3906] | > 8
3 | Ac-VYCE[dP][Orn]WLDWSC-NH2 (linker 3-12 via mXylylene; lactam 6-9; SMILES CC(=O)N[C@H](C(=O)N[C@@H](Cc1ccc(O)cc1)C(=O)N[C@H]1CSCc2cccc(c2)CSC[C@@H](C(N)=O)NC(=O)[C@H](CO)NC(=O)[C@H](Cc2c[nH]c3ccccc23)NC(=O)[C@@H]2CC(=O)NCCC[C@H](NC(=O)[C@H]3CCCN3C(=O)[C@H](CCC(=O)O)NC1=O)C(=O)N[C@@H](Cc1c[nH]c3ccccc13)C(=O)N[C@@H](CC(C)C)C(=O)N2)C(C)C) [3BP-4005] | > 8
4 | {DOTA-APAc}-VYCE[dP][hSer]WLTWSC-NH2 (linker 3-12 via mXylylene; reading uncertain) [3BP-4102] | > 8
5 | {DOTA-APAc}-VYC[hSer][dP]DWLTWSC-NH2 (linker 3-12 via mXylylene; reading uncertain) [3BP-4101] | > 8
6 | {DOTA-APAc}-V[Orn(Me2)]CE[dP]DWLTWSC-NH2 (linker 3-12 via mXylylene; reading uncertain) [3BP-4095] | > 8
7 | {DOTA-APAc}-VYCE[dmo]DWLTWSC-NH2 (linker 3-12 via mXylylene; reading uncertain) [3BP-4097] | > 8
8 | {DOTA}-YCE[dP]KWLEWSC-NH2 (linker 2-11 via mXylylene; lactam 5-8; SMILES CC(C)C[C@@H]1NC(=O)[C@H](Cc2c[nH]c3ccccc23)NC(=O)[C@@H]2CCCCNC(=O)CC[C@H](NC1=O)C(=O)N[C@@H](Cc1c[nH]c3ccccc13)C(=O)N[C@@H](CO)C(=O)N[C@H](C(N)=O)CSCc1cccc(c1)CSC[C@H](NC(=O)[C@H](Cc1ccc(O)cc1)NC(=O)CN1CCN(CC(=O)O)CCN(CC(=O)O)CCN(CC(=O)O)CC1)C(=O)N[C@@H](CCC(=O)O)C(=O)N1CCC[C@@H]1C(=O)N2) [3BP-3934] | > 8
9 | Ac-VYCE[dP]KWLEWS[Pen]-NH2 (linker 3-12 via mXylylene; lactam 6-9; SMILES CC(=O)N[C@H](C(=O)N[C@@H](Cc1ccc(O)cc1)C(=O)N[C@H]1CSCc2cccc(c2)CSC(C)(C)[C@@H](C(N)=O)NC(=O)[C@H](CO)NC(=O)[C@H](Cc2c[nH]c3ccccc23)NC(=O)[C@@H]2CCC(=O)NCCCC[C@H](NC(=O)[C@H]3CCCN3C(=O)[C@H](CCC(=O)O)NC1=O)C(=O)N[C@@H](Cc1c[nH]c3ccccc13)C(=O)N[C@@H](CC(C)C)C(=O)N2)C(C)C) [3BP-3963] | > 8
10 | {DOTA-APAc}-VYCE[dP][NMeD]WLTWSC-NH2 (linker 3-12 via mXylylene; reading uncertain) [3BP-4107] | > 8
11 | {DOTA-APAc}-VYC[Orn(Me2)][dP]DWLTWSC-NH2 (linker 3-12 via mXylylene; reading uncertain) [3BP-4096] | > 8
12 | {DOTA-APAc}-VYCE[dP]DWLTWSC-NH2 (linker 3-12 via mXylylene; reading uncertain; also: ['indium complexed by DOTA']) [3BP-3905] | > 8
13 | {DOTA-APAc″}-VDCE[dP]DWLTW[Dap]C-NH2 (lactam 2-11; linker 3-12 via mXylylene) [3BP-4174] | > 8
14 | {DOTA-APAc}-VYCE[dP]DWLTW[Orn(Me2)]C-NH2 (linker 3-12 via mXylylene; reading uncertain) [3BP-4100] | > 8

Now from value to binder:

Row | pIC50 [pic50] | Binder
15 | > 8 | {DOTA-APAc″}-VYCE[dP]DW[Cha]TWSC-NH2 (linker 3-12 via mXylylene) [3BP-4143]
16 | > 8 | {DOTA-APAc}-VYCE[dP]D[Phe(4-CF3)]LTWSC-NH2 (linker 3-12 via mXylylene; not fully specified; reading uncertain) [3BP-4139]
17 | > 8 | {DOTA-APAc}-VYCE[dP][Eem]WLTWSC-NH2 (linker 3-12 via mXylylene; not fully specified; reading uncertain) [3BP-4123]
18 | > 8 | {DOTA-APAc″}-VYCE[dP]DW[tBuAla]TWSC-NH2 (linker 3-12 via mXylylene) [3BP-4142]
19 | > 8 | {DOTA-APAc}-VYCE[dP]D[Phe(3-CF3)]LTWSC-NH2 (linker 3-12 via mXylylene; not fully specified; reading uncertain) [3BP-4135]
20 | > 8 | {DOTA-APAc″}-V[Dap]CE[dP]DWLTWDC-NH2 (lactam 2-11; linker 3-12 via mXylylene) [3BP-4176]
21 | > 8 | {DOTA-APAc″}-V[Dap]CE[dP]DWLTWEC-NH2 (lactam 2-11; linker 3-12 via mXylylene) [3BP-4177]
22 | > 8 | {DOTA-APAc″}-VYCE[dP]D[ξTrp(7-Me)]LTWSC-NH2 (linker 3-12 via mXylylene; not fully specified) [3BP-4158]
23 | > 8 | {DOTA-APAc″}-VYCE[dP]D[ξTrp(1-Me)]LTWSC-NH2 (linker 3-12 via mXylylene; not fully specified) [3BP-4144]
24 | > 8 | {DOTA-APAc}-VYCE(AGLU′)[dP]DWLTWSC-NH2 (linker 3-12 via mXylylene; reading uncertain) [3BP-4113]
25 | > 8 | {DOTA-APAc}-VYCE[dP]D[Bip]LTWSC-NH2 (linker 3-12 via mXylylene; not fully specified; reading uncertain) [3BP-4131]
26 | > 8 | {DOTA-APAc}-VYCE[dP]D[Phe(4-I)]LTWSC-NH2 (linker 3-12 via mXylylene; not fully specified; reading uncertain) [3BP-4134]
27 | > 8 | {DOTA-APAc}-VYCE[dP]DYLTWSC-NH2 (linker 3-12 via mXylylene; not fully specified; reading uncertain) [3BP-4136]
28 | > 8 | {DOTA-APAc″}-VYCE[dP]E(NHMe2Nph)WLTWSC-NH2 (linker 3-12 via mXylylene; reading uncertain) [3BP-4215]
29 | > 8 | {DOTA-APAc}-VYCE[dP]D[Phe(3,4-Cl2)]LTWSC-NH2 (linker 3-12 via mXylylene; not fully specified; reading uncertain) [3BP-4133]
30 | > 8 | {DOTA}-SDCE[dP]DWLTW[Dap]C-NH2 (lactam 11-2; linker 3-12 via mXylylene; SMILES CC(C)C[C@@H]1NC(=O)[C@H](Cc2c[nH]c3ccccc23)NC(=O)[C@H](CC(=O)O)NC(=O)[C@H]2CCCN2C(=O)[C@H](CCC(=O)O)NC(=O)[C@@H]2CSCc3cccc(c3)CSC[C@@H](C(N)=O)NC(=O)[C@H](CNC(=O)C[C@H](NC(=O)[C@H](CO)NC(=O)CN3CCN(CC(=O)O)CCN(CC(=O)O)CCN(CC(=O)O)CC3)C(=O)N2)NC(=O)[C@H](Cc2c[nH]c3ccccc23)NC(=O)[C@H]([C@@H](C)O)NC1=O) [3BP-4257]
31 | > 8 | {DOTA-APAc″}-VECE[dP]DWLTW[Dap]C-NH2 (lactam 2-11; linker 3-12 via mXylylene) [3BP-4175]
32 | > 8 | {DOTA-APAc}-VYCE[dP]D[Dip]LTWSC-NH2 (linker 3-12 via mXylylene; not fully specified; reading uncertain) [3BP-4132]
